Laboratory results taken from patent US20120045438A1 (Janssen / Centocor, published 2012).
Substitutions are numbered along the chain they refer to.

B1: mAb with Lc 1A05 (Lc6 variant) and Hc2 (antibody, V domains shown)
VH: QVTLKESGPVLVKPTETLTLTCTVSGFSLSTYGMGVGWIRQPPGKALEWLAHIWWDDVKRYNPALKSRLTISKDTSKSQVVLTMTNMDPVDTATYYCARMGSDYDVWFDYWGQGTLVTVSS
VL: EIVLTQSPATLSLSPGERATLSCRASKSISKYLAWYQQKPGQAPRLLIYSGSTLQSGIPARFSGSGSGTDFTLTISSLEPEDFAVYYCQQQDGPYTFGQGTKLEIK
notes: human IgG1; del = residue deleted
B2: Phage # 48 Fab (IL-13-142 library) (Fab, V domains shown)
VH: B1 VH
VL: DIQMTQSPSTLSASVGDRVTITCRASKSISKYLAWYQQKPGKAPKLLIYSGSTLQSGVPSRFSGSGSGTEFTLTISSLQPDDFATYYCQQHDWGPYTFGGGTKVEIK
notes: Fab on phage pIX
B3: Phage # 33 Fab (IL-13-142 library) (Fab, V domains shown)
VH: B1 VH
VL: B2 VL
notes: Fab on phage pIX
B4: Phage # 62 Fab (IL-13-142 library) (Fab, V domains shown)
VH: B1 VH
VL: DIQMTQSPSTLSASVGDRVTITCRASKSISKYLAWYQQKPGKAPKLLIYSGSTLQSGVPSRFSGSGSGTEFTLTISSLQPDDFATYYCQQQDSPYTFGGGTKVEIK
notes: Fab on phage pIX; del = residue deleted
B5: Phage # 93 Fab (IL-13-142 library) (Fab, V domains shown)
VH: B1 VH
VL: B2 VL with D92E, W93S
notes: Fab on phage pIX
B6: mAb with Lc 2C01 (Lc6 variant) and Hc2 (antibody, V domains shown)
VH: B1 VH
VL: EIVLTQSPATLSLSPGERATLSCRASKSISKYLAWYQQKPGQAPRLLIYSGSTLQSGIPARFSGSGSGTDFTLTISSLEPEDFAVYYCQQHSIGPYTFGQGTKLEIK
notes: human IgG1
B7: mAb with Lc 2E06 (Lc6 variant) and Hc2 (antibody, V domains shown)
VH: B1 VH
VL: B6 VL with I93S
notes: human IgG1
B8: mAb with Lc 2H01 (Lc6 variant) and Hc2 (antibody, V domains shown)
VH: B1 VH
VL: B6 VL with S92D, I93W, G94E
notes: human IgG1
B9: mAb with Lc 2C05 (Lc6 variant) and Hc2 (antibody, V domains shown)
VH: B1 VH
VL: B6 VL with H91Q, S92D, I93L
notes: human IgG1
B10: mAb with Lc 3A04 (Lc6 variant) and Hc2 (antibody, V domains shown)
VH: B1 VH
VL: B6 VL with H91P, S92L, I93D, G94S
notes: human IgG1
B11: mAb with Lc 2E01 (Lc6 variant, Table 8) and Hc2 (antibody, V domains shown)
VH: B1 VH
VL: B6 VL with S92N, I93E, G94A
notes: human IgG1
B12: mAb with Lc 1B01 (Lc6 variant) and Hc2 (antibody, V domains shown)
VH: B1 VH
VL: B6 VL with I93W
notes: human IgG1
B13: Phage # 83 Fab (IL-13-142 library) (Fab, V domains shown)
VH: B1 VH
VL: B2 VL with W93M
notes: Fab on phage pIX
B14: Phage # 80 Fab (IL-13-142 library) (Fab, V domains shown)
VH: B1 VH
VL: B4 VL with S93Y
notes: as for B4
B15: Phage # 85 Fab (IL-13-142 library) (Fab, V domains shown)
VH: B1 VH
VL: B2 VL with D92M
notes: Fab on phage pIX
B16: mAb with Lc 2A01 (Lc6 variant) and Hc2 (antibody, V domains shown)
VH: B1 VH
VL: B6 VL with I93H
notes: human IgG1
B17: mAb with Lc 1H02 (Lc6 variant) and Hc2 (antibody, V domains shown)
VH: B1 VH
VL: B6 VL with H91Q, S92D
notes: human IgG1
B18: mAb with Lc 2A03 (Lc6 variant) and Hc2 (antibody, V domains shown)
VH: B1 VH
VL: B6 VL with S92E, I93S
notes: human IgG1
B19: mAb with Lc 1G02 (Lc6 variant, Table 8) and Hc2 (antibody, V domains shown)
VH: B1 VH
VL: B6 VL with I93W, G94A
notes: human IgG1
B20: Phage # 86 Fab (IL-13-142 library) (Fab, V domains shown)
VH: B1 VH
VL: B2 VL with W93T
notes: Fab on phage pIX
B21: mAb with Lc 3B06 (Lc6 variant) and Hc2 (antibody, V domains shown)
VH: B1 VH
VL: B6 VL with S92L, I93M
notes: human IgG1
B22: mAb with Lc 1F03 (Lc6 variant, Table 8) and Hc2 (antibody, V domains shown)
VH: B1 VH
VL: B6 VL with S92D, I93R, G94D
notes: human IgG1
B23: mAb with Lc 3A09 (Lc6 variant) and Hc2 (antibody, V domains shown)
VH: B1 VH
VL: B6 VL with S92D, I93L
notes: human IgG1
B24: mAb with Lc 3A05 (Lc6 variant) and Hc2 (antibody, V domains shown)
VH: B1 VH
VL: B6 VL with S92D, I93N, G94S
notes: human IgG1
B25: Phage # 88 Fab (IL-13-142 library) (Fab, V domains shown)
VH: B1 VH
VL: B2 VL with D92F
notes: Fab on phage pIX
B26: Phage # 68 Fab (IL-13-142 library) (Fab, V domains shown)
VH: B1 VH
VL: B4 VL with Q91H, S93F
notes: as for B4
B27: Phage # 84 Fab (IL-13-142 library) (Fab, V domains shown)
VH: B1 VH
VL: B2 VL with D92L, W93I, G94E
notes: Fab on phage pIX
B28: mAb with Lc 2C04 (Lc6 variant) and Hc2 (antibody, V domains shown)
VH: B1 VH
VL: B6 VL with S92N, I93F
notes: human IgG1
B29: mAb with Lc 2C09 (Lc6 variant) and Hc2 (antibody, V domains shown)
VH: B1 VH
VL: B6 VL with S92E, I93W
notes: human IgG1
B30: mAb with Lc 2E04 (Lc6 variant) and Hc2 (antibody, V domains shown)
VH: B1 VH
VL: B6 VL with H91P, S92L, I93E, G94A
notes: human IgG1
B31: mAb with Lc 1C02 (Lc6 variant) and Hc2 (antibody, V domains shown)
VH: B1 VH
VL: B6 VL with S92V, I93W
notes: human IgG1
B32: Phage # 87 Fab (IL-13-142 library) (Fab, V domains shown)
VH: B1 VH
VL: B2 VL with D92S, W93L
notes: Fab on phage pIX
B33: Phage # 94 Fab (IL-13-142 library) (Fab, V domains shown)
VH: B1 VH
VL: B2 VL with W93L
notes: Fab on phage pIX
B34: mAb with Lc 3C06 (Lc6 variant) and Hc2 (antibody, V domains shown)
VH: B1 VH
VL: B6 VL with I93V
notes: human IgG1
B35: mAb with Lc 2E12 (Lc6 variant) and Hc2 (antibody, V domains shown)
VH: B1 VH
VL: B6 VL with S92D, I93W, G94S
notes: human IgG1
B36: mAb with Lc 2H08 (Lc6 variant) and Hc2 (antibody, V domains shown)
VH: B1 VH
VL: B6 VL with S92L, I93D, G94S
notes: human IgG1
B37: mAb with Lc 2G01 (Lc6 variant) and Hc2 (antibody, V domains shown)
VH: B1 VH
VL: B6 VL with S92F, I93W
notes: human IgG1
B38: mAb with Lc 2A12 (Lc6 variant) and Hc2 (antibody, V domains shown)
VH: B1 VH
VL: B6 VL with S92D, I93P
notes: human IgG1
B39: mAb with Lc 1E03 (Lc6 variant) and Hc2 (antibody, V domains shown)
VH: B1 VH
VL: B6 VL with S92L, I93L
notes: human IgG1
B40: mAb with Lc 2H09 (Lc6 variant) and Hc2 (antibody, V domains shown)
VH: B1 VH
VL: B6 VL with H91P, S92I, I93D, G94A
notes: human IgG1

Columns and labels:
[1] = molecular target: T1, human IL-13 R130Q variant (R110Q of the mature chain) (human, UniProt P35225 35-146, Biotinylated on amines (NHS-LC-biotin, 4:1) in ELISA, panning and competition assays. The letters are unchanged.); test: Ra2 binding inhibition ELISA, mAb in crude HEK293 supernatant, IL-13 binding to IL-13Ra2
T1 construct: R130Q counts from Met 1 of the signal peptide, R110Q on the mature chain; Bought from Peprotech; also called IL-13 R110Q; b-R130Q

[2] = molecular target: T1, human IL-13 R130Q variant (R110Q of the …); test: single-point (10 nM) phage Fab ELISA on biotinylated IL-13 R130Q

| Binder | % Ra2 Binding Inhibition [1] | % of Lc16Hc7 [2] |
| --- | --- | --- |
| B1 | 82.7% |  |
| B2 |  | 180% |
| B3 |  | 124% |
| B4 |  | 185% |
| B5 |  | 223% |
| B6 | 67.7% |  |
| B7 | 50.2% |  |
| B8 | 80% |  |
| B9 | 83.8% |  |
| B10 | 67% |  |
| B11 | 53.9% |  |
| B12 | 77.6% |  |
| B13 |  | 145% |
| B14 |  | 163% |
| B15 |  | 259% |
| B16 | 72.1% |  |
| B17 | 81.7% |  |
| B18 | 75.8% |  |
| B19 | 55.2% |  |
| B20 |  | 334% |

| Binder | % Ra2 Binding Inhibition [1] | % of Lc16Hc7 [2] |
| --- | --- | --- |
| B21 | 74.3% |  |
| B22 | 57.6% |  |
| B23 | 76.5% |  |
| B24 | 55.5% |  |
| B25 |  | 193% |
| B26 |  | 398% |
| B27 |  | 186% |
| B28 | 61.9% |  |
| B29 | 87.6% |  |
| B30 | 56.6% |  |
| B31 | 68.4% |  |
| B32 |  | 125% |
| B33 |  | 272% |
| B34 | 62.1% |  |
| B35 | 83% |  |
| B36 | 62.3% |  |
| B37 | 81.2% |  |
| B38 | 78.5% |  |
| B39 | 61.5% |  |
| B40 | 62.5% |  |
